Data on three proteins can be found in publication PMC7955032, “The amyloid structure of mouse RIPK3 (receptor interacting protein kinase 3) in cell necroptosis” (Nature Communications, 2021).

Series [1] deals with the molecule itself. In words: solid-state NMR; MAS SSNMR of isotope-labelled fibrils, 700 MHz, 303 K, 15 kHz; structure calculated with Xplor-NIH for 5 copies of residues 441-460; intermolecular contacts from [2-13C]-glycerol labelled sample and from a 1:1 mix of 15N- and 13C-labelled protein.
Series [2] deals with the molecule itself. The experiment in a line: thioflavin T fluorescence of fibril growth; 2 mM protein in 6 M GudHCl diluted to 20 µM in 10 mM PB buffer pH 7.4, 50 µM ThT, room temperature, about 4 h.

B1: mouse RIPK3 409-486 Q449D (domain or fragment, UniProt Q9QZL0 409-486, looked up)
chain: GPHPQRNQGDGRHGTPWYPWTPPNPMTGPPALVFNNCSEVDIGNYNSLVAPPRTTASSSAKYDQAQFGRGRGWQPFHK
notes: RIPK3, mouse, residues 409-486, same construction as the SSNMR sample, with Q449D; Same construct as m1 with one substitution; source: E. coli Transetta (DE3), purified (Ni-NTA, reverse phase HPLC)
Take B1: in series [1], the binding result is listed as “binds”.

B2: mouse RIPK3 409-486 F442D (domain or fragment, UniProt Q9QZL0 409-486, looked up)
chain: GPHPQRNQGDGRHGTPWYPWTPPNPMTGPPALVDNNCSEVQIGNYNSLVAPPRTTASSSAKYDQAQFGRGRGWQPFHK
notes: RIPK3, mouse, residues 409-486, same construction as the SSNMR sample, with F442D; Same construct as m1 with one substitution; source: E. coli Transetta (DE3), purified (Ni-NTA, reverse phase HPLC)
Take B2: the binding result in series [2] is recorded as “binds”.

B3: mouse RIPK3 409-486 L456D (domain or fragment, UniProt Q9QZL0 409-486, looked up)
chain: GPHPQRNQGDGRHGTPWYPWTPPNPMTGPPALVFNNCSEVQIGNYNSDVAPPRTTASSSAKYDQAQFGRGRGWQPFHK
notes: RIPK3, mouse, residues 409-486, same construction as the SSNMR sample, with L456D; Same construct as m1 with one substitution; source: E. coli Transetta (DE3), purified (Ni-NTA, reverse phase HPLC)
Regarding B3, the binding result in series [1] was “binds”.
